Data as given in US20150284431A1 (H LEE MOFFITT CANCER CENTER AND RESEARCH INSTITUTE, published 2015).
Square brackets hold non-standard residues; d marks the D form. Primed or numbered codes have the meaning given here. Side chains are listed from the residue outwards. * marks the point of attachment. Butanoyl(4-Ph) = O=C(CCCc1ccccc1)*; IR800CW″ = IRDye800CW maleimide; Mpa = O=C(O)CCS

Molecular target: MC5R expressed in the kidneys (of the xenograft-bearing mice)
Assay: cell-based or functional assay

Chain of MC5R expressed in the kidneys (of the xenograft-bearing mice) (P41149 whole entry): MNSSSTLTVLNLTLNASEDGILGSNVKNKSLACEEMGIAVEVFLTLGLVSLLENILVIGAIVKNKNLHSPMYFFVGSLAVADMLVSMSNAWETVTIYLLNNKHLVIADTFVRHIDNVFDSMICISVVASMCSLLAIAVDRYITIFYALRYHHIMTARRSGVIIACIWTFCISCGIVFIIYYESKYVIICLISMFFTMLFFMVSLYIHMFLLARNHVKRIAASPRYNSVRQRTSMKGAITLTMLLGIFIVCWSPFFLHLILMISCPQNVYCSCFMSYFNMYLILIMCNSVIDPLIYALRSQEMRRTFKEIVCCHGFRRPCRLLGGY

fold decrease in renal uptake of MC1RL-800 at 2 hr, with co-injection of 1 nmol/kg MC4R/5R compound (SEQ ID NO:10), compared to control animals: 1.56 fold
Binder: {Butanoyl(4-Ph)}-H[dF]RWGK([Mpa-IR800CW″])-NH2 [4-phenylbutyryl-His-DPhe-Arg-Trp-Gly-Lys(Mpr-IR800CW)-NH2]
